Each sequence was assayed on Escherichia coli TOP10 (assay: shrunken log2 fold change of peptide-encoding DNA abundance (4.5 h post-induction vs induction); higher = less antimicrobial activity (less host growth inhibition)). Conditions: time post-induction: 4.5 h; library: site-saturation at positions 5, 18, 19, 20.
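Further: peptides expressed intracellularly from a pBAD plasmid library in pooled LB shake-flask culture, induced with 0.3% L-arabinose, DNA abundance read by NGS, three biological replicates, DESeq2 with apeglm shrinkage.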

Sequence | shrunken log2 fold change
RRIRNRPPRLPRPRPRPEAQPRP | -0.0169
RRIRTRPPRLPRPRPRPLLHPRP | 0.0651
RRIRSRPPRLPRPRPRPQHMPRP | -0.336
RRIRKRPPRLPRPRPRPCEAPRP | 0.277
RRIRRRPPRLPRPRPRPIQGPRP | -0.00136
RRIRFRPPRLPRPRPRPRVMPRP | 0.138
RRIRFRPPRLPRPRPRPRNCPRP | -0.132
RRIRVRPPRLPRPRPRPNAHPRP | 0.038
RRIRKRPPRLPRPRPRPLHNPRP | 0.0882
RRIRHRPPRLPRPRPRPQADPRP | -0.139
RRIRVRPPRLPRPRPRPLYHPRP | -0.677
RRIRIRPPRLPRPRPRPKVDPRP | -0.468
RRIRARPPRLPRPRPRPSPHPRP | 0.187
RRIRDRPPRLPRPRPRPVKNPRP | -0.0293
RRIRVRPPRLPRPRPRPACVPRP | -0.0412
RRIRARPPRLPRPRPRPIFQPRP | 0.116
RRIRHRPPRLPRPRPRPNQAPRP | 0.033
RRIRFRPPRLPRPRPRPMHFPRP | -0.136
RRIRIRPPRLPRPRPRPTFNPRP | -0.595
RRIRWRPPRLPRPRPRPQCIPRP | -0.0652
RRIRRRPPRLPRPRPRPVFGPRP | 0.329
RRIRDRPPRLPRPRPRPPEKPRP | 0.106
RRIRWRPPRLPRPRPRPVCCPRP | 0.469
RRIRERPPRLPRPRPRPTYMPRP | -0.121
RRIRMRPPRLPRPRPRPGFLPRP | 0.113

Sequence | shrunken log2 fold change
RRIRDRPPRLPRPRPRPATVPRP | -0.0689
RRIRQRPPRLPRPRPRPFMQPRP | -0.259
RRIRKRPPRLPRPRPRPEYLPRP | -0.0659
RRIRVRPPRLPRPRPRPAFGPRP | 0.18
RRIRVRPPRLPRPRPRPFFPPRP | -0.0751
RRIRARPPRLPRPRPRPHPRPRP | 0.696
RRIRNRPPRLPRPRPRPYQKPRP | -0.0633
RRIRDRPPRLPRPRPRPTEDPRP | -0.0699
RRIRTRPPRLPRPRPRPKVLPRP | -0.015
RRIRNRPPRLPRPRPRPKNGPRP | 0.96
RRIRMRPPRLPRPRPRPWIAPRP | -0.00608
RRIRARPPRLPRPRPRPYKMPRP | -0.821
RRIRKRPPRLPRPRPRPDIQPRP | 0.867
RRIRDRPPRLPRPRPRPPHTPRP | 0.198
RRIRNRPPRLPRPRPRPLHAPRP | -0.0128
RRIRERPPRLPRPRPRPDCEPRP | -0.0494
RRIRRRPPRLPRPRPRPNRWPRP | 0.107
RRIRARPPRLPRPRPRPPHIPRP | 0.455
RRIRPRPPRLPRPRPRPGDKPRP | -0.307
RRIRCRPPRLPRPRPRPPWQPRP | 0.389
RRIRYRPPRLPRPRPRPLIAPRP | -0.668
RRIRLRPPRLPRPRPRPTKCPRP | -0.0436
RRIRQRPPRLPRPRPRPRPPPRP | 1.08
RRIRDRPPRLPRPRPRPHFMPRP | -0.47
RRIRNRPPRLPRPRPRPPHGPRP | -0.0913

Sequence | shrunken log2 fold change
RRIRCRPPRLPRPRPRPIKNPRP | -0.311
RRIRTRPPRLPRPRPRPALFPRP | 0.000901
RRIRLRPPRLPRPRPRPTFIPRP | -0.528
RRIRTRPPRLPRPRPRPGCGPRP | 0.385
RRIRGRPPRLPRPRPRPMRPPRP | 1.3
RRIRDRPPRLPRPRPRPGKHPRP | -0.0728
RRIRPRPPRLPRPRPRPPRNPRP | 0.315
RRIRYRPPRLPRPRPRPNMYPRP | -0.411
RRIRIRPPRLPRPRPRPKMYPRP | -0.25
RRIRYRPPRLPRPRPRPTNMPRP | -0.541
RRIRDRPPRLPRPRPRPHQQPRP | -0.0346
RRIRARPPRLPRPRPRPEHFPRP | 0.126
RRIRCRPPRLPRPRPRPDAQPRP | 0.456
RRIRFRPPRLPRPRPRPQDGPRP | 0.0293
RRIRHRPPRLPRPRPRPWRCPRP | -0.221
RRIRDRPPRLPRPRPRPNKMPRP | -0.195
RRIRERPPRLPRPRPRPTLYPRP | -0.184
RRIRWRPPRLPRPRPRPHYHPRP | -0.506
RRIRKRPPRLPRPRPRPIGHPRP | 0.0336
RRIRHRPPRLPRPRPRPKFWPRP | 0.00227
RRIRVRPPRLPRPRPRPDHDPRP | -0.485
RRIRPRPPRLPRPRPRPGYPPRP | -0.0289
RRIRQRPPRLPRPRPRPQYAPRP | -0.176
RRIRMRPPRLPRPRPRPKLVPRP | 0.115
RRIRMRPPRLPRPRPRPSNRPRP | -0.0397

Sequence | shrunken log2 fold change
RRIRLRPPRLPRPRPRPCKIPRP | -0.357
RRIRARPPRLPRPRPRPEGRPRP | 2.11
RRIRERPPRLPRPRPRPMLEPRP | 0.282
RRIRKRPPRLPRPRPRPYPKPRP | 0.109
RRIRGRPPRLPRPRPRPRHNPRP | 0.0863
RRIRARPPRLPRPRPRPAVYPRP | -0.079
RRIRQRPPRLPRPRPRPELCPRP | 0.177
RRIRYRPPRLPRPRPRPRYNPRP | -0.339
RRIRHRPPRLPRPRPRPHCCPRP | -0.156
RRIRCRPPRLPRPRPRPRRIPRP | -0.246
RRIRERPPRLPRPRPRPMFHPRP | -0.897
RRIRARPPRLPRPRPRPWFFPRP | 0.089
RRIRYRPPRLPRPRPRPHMAPRP | -0.155
RRIRFRPPRLPRPRPRPEALPRP | 0.0209
RRIRSRPPRLPRPRPRPMRQPRP | 0.728
RRIRWRPPRLPRPRPRPYCRPRP | -0.295
RRIRCRPPRLPRPRPRPYQFPRP | -0.0218
RRIRWRPPRLPRPRPRPNFDPRP | -0.0228
RRIRSRPPRLPRPRPRPIKDPRP | -0.224
RRIRERPPRLPRPRPRPNPSPRP | -0.162
RRIRMRPPRLPRPRPRPNVWPRP | 0.303
RRIRLRPPRLPRPRPRPFQKPRP | 0.382
RRIRCRPPRLPRPRPRPIVMPRP | -0.235
RRIRRRPPRLPRPRPRPENSPRP | 0.118
RRIRKRPPRLPRPRPRPTMGPRP | -0.0139

Sequence | shrunken log2 fold change
RRIRYRPPRLPRPRPRPTWWPRP | 0.134
RRIRDRPPRLPRPRPRPMSAPRP | -0.177
RRIRDRPPRLPRPRPRPFLKPRP | -0.212
RRIRKRPPRLPRPRPRPACCPRP | 0.192
RRIRIRPPRLPRPRPRPGPTPRP | 0.175
RRIRPRPPRLPRPRPRPRPTPRP | 0.869
RRIRARPPRLPRPRPRPMIAPRP | 0.263
RRIRDRPPRLPRPRPRPTCNPRP | 0.13
RRIRERPPRLPRPRPRPSDKPRP | -0.982
RRIRARPPRLPRPRPRPNGIPRP | -0.109
RRIRERPPRLPRPRPRPWGLPRP | -0.026
RRIRPRPPRLPRPRPRPHNLPRP | -0.131
RRIRLRPPRLPRPRPRPFQQPRP | 0.0873
RRIRERPPRLPRPRPRPNHGPRP | -0.348
RRIRRRPPRLPRPRPRPACLPRP | 0.623
RRIRCRPPRLPRPRPRPIFWPRP | 0.235
RRIRWRPPRLPRPRPRPVDTPRP | 0.00157
RRIRDRPPRLPRPRPRPMHHPRP | -0.146
RRIRGRPPRLPRPRPRPTEAPRP | -0.0279
RRIRWRPPRLPRPRPRPEHAPRP | 0.921
RRIRERPPRLPRPRPRPVKNPRP | 0.0428
RRIRTRPPRLPRPRPRPSGMPRP | -0.34
RRIRERPPRLPRPRPRPIRTPRP | -0.577
RRIRLRPPRLPRPRPRPTSDPRP | 0.0874
RRIRGRPPRLPRPRPRPKQMPRP | 1.03

Reference: the supplement of paper PMC9112550, “Optimization of the antimicrobial peptide Bac7 by deep mutational scanning” (BMC Biology, 2022)
